# Laboratory results taken from article PMC4580590.
# B1: DLDH744 (Sporolactobacillus inulinus CASD) (protein)
# chain: MKIIMFSVRDDEEAAIREWEKKTGVQVDINRLELDAETAQLTKGYDGIVIQQRSHISNPAVYETLQKNGLRQLTSRTAGYDMIDLEQASERGLVVTNVPAYSPNSVAELALTQTMRLIRNLPLFDARGAEQDFRWAGLMAREIRSLTVGIIGAGRIGGTVARLFKALGATVIANDIVERVELKDIVTYVSKEELLQAADVVTLHVPLMDSTTQLIDADALALMKNDAVLINASRGPVVDTDALIAALQNKQIAGAALDTLNGEEHFFNQDLCGKELPSEQLKVLRTLPNVLITPHIGFYTNKAVQNMVEISLNDVLAILKTGTSEHQLNKVAVEN
# notes: full length, 335 residues, homodimer; vector pET-28a(+), E. coli BL21(DE3); purified
# Experiments:
# [1] = molecular target: D-lactate dehydrogenase from Sporolactobacillus inulinus CASD (DLDH744) (Sporolactobacillus inulinus CASD); experiment: crystal structure; DLDH744 in complex with NAD+; molecular replacement, refined at 3.15 Å; homo-dimer in one asymmetric unit
# purified protein [2] = substrate: O=C(O)C(=O)Cc1ccccc1; experiment: purified protein; format: biochemical, Sporolactobacillus inulinus; conditions: 100 mM PBS pH 5.5, 30°C, 0.2 mM NADH or NADPH (which one not told)
# purified protein [3] = substrate: CC(=O)C(=O)O; experiment: purified protein; format: biochemical, Sporolactobacillus inulinus; conditions: 100 mM PBS pH 5.5, 30°C, 0.2 mM NADH or NADPH (which one not told)
# purified protein [4] = substrate: N[C@@H](CCC(=O)O)C(=O)O; experiment: purified protein; format: biochemical, Sporolactobacillus inulinus; conditions: 100 mM PBS pH 5.5, 30°C, oxidative deamination, cofactor of the kinetic run not clearly told (0.2 mM NAD(P)+ in activity assay)
Molecule,stoichiometry N [1],Km (purified protein [2]),Km (purified protein [3]),kcat (purified protein [3]),Km (purified protein [4]),kcat (purified protein [4])
D-lactate dehydrogenase from Sporolactobacillus inulinus CASD (DLDH744) (enzyme),2,–,–,–,–,–
B1,–,3.32 ± 0.08 mM,3.4 ± 0.02 mM,512.2 ± 7.6 min⁻¹,5.7 ± 0.09 mM,22.3 ± 0.1 min⁻¹
